Test results reported in US20230203159A1.

Experiments:
[1] = target: human CD3 receptor on T cell surface (Jurkat cells, human CD4 T cells) (human) (UniProt P07766); assay: flow cytometry on Jurkat cells, one site saturation fit
[2] = target: Cynomolgus Monkey CD3epsilon protein (Cynomolgus monkey) (UniProt Q95LI5); assay: ELISA, protein coated on plate
[3] = target: Human CD3 epsilon (CD3epsilon) protein (His Tag) (human) (UniProt P07766); assay: ELISA, protein coated on plate
[4] = target: mouse CD3epsilon protein (mouse) (UniProt P22646); assay: ELISA, protein coated on plate
Sequence of mouse CD3epsilon protein (mouse) (P22646 22-108 limits assumed): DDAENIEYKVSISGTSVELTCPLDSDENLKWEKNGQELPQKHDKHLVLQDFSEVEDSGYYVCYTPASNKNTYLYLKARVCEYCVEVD

Sequence of Human CD3 epsilon (CD3epsilon) protein (His Tag) (human) (P07766 23-126): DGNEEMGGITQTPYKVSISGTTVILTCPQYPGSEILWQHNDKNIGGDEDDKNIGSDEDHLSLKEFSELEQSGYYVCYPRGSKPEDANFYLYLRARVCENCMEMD
Sequence of human CD3 receptor on T cell surface (Jurkat cells, human CD4 T cells) (human) (P07766 23-207): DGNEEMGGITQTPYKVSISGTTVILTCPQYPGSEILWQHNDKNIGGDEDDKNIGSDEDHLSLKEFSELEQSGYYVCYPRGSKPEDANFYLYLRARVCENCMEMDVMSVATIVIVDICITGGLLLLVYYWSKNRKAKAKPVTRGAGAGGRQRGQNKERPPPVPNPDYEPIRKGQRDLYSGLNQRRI
Sequence of Cynomolgus Monkey CD3epsilon protein (Cynomolgus monkey) (Q95LI5 22-117 limits assumed): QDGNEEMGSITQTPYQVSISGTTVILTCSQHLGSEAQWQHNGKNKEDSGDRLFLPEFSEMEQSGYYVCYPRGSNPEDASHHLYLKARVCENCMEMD

| Best fit- Bmax [1] | ELISA A450 [2] [A450] | ELISA A450 [3] [A450] | ELISA A450 [4] [A450] | Substance |
| --- | --- | --- | --- | --- |
| 9.41e-11 | – | – | – | Benchmark antibody OKT3 |
| – | 0.046 | 0.046 | 0.179 | Negative Control |
